1 substance from publication PMC10135305 can be followed below.

The term stoichiometry N denotes the number of molecules, sites or subunits per partner or assembly.

In the assay the target is C-terminal domain of catalase-3 (CAT-3) of Neurospora crassa (TDC3) (Neurospora crassa) (UniProt Q9C169). Description: SEC; Superdex 75 HR 10/300 on FPLC; TDC3 1 mg/mL injected, 0.75 mL/min; mass from gel filtration standards. (Size exclusion chromatography separates by hydrodynamic size, large species first.)

“C-terminal domain of catalase-3 (CAT-3) of Neurospora crassa (TDC3) (from UniProt Q9C169 568-719) (domain or fragment)”: the stoichiometry N was 2.
